The results in this text go back to patent publication US20260042854A1, “ANTI-GLP-1R ANTIBODIES AND USES THEREOF” (SCIWIND BIOSCIENCES USA CO., LTD, priority 2022, published 2026).

Assay [1] deals with hGLP-1R on the cell membrane (HEK293 cells overexpressing hGLP-1R) (human) (UniProt P43220). The assay can be described thus: cell-based or functional assay.
Assay [2] deals with monkey GLP-1R (JN033215.1) on HEK293 cells (monkey). As to the kind of experiment: cell-based or functional assay.

Chain of hGLP-1R on the cell membrane (HEK293 cells overexpressing hGLP-1R) (human) (P43220 24-463): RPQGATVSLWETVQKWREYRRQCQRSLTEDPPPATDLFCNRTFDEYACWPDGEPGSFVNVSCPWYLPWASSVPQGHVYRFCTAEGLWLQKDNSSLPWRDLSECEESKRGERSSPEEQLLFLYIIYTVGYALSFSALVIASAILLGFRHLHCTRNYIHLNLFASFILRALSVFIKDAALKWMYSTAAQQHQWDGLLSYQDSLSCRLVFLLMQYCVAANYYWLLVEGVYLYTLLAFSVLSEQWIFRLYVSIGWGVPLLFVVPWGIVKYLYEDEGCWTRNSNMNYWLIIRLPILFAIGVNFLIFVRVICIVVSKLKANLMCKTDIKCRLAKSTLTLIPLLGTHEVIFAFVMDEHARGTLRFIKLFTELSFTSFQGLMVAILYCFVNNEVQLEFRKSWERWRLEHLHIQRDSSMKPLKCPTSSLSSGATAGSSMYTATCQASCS

B1: P16891 (antibody, human IgG4 S228P, kappa)
heavy: QVQLVQSGAEMKKPGASVKVSCKTSGYRFSTYVISWVRQTPGQGLEWMGWISPYTGDIDYAQKFQGRVTITADESTSTAYMELSRLRSDDTAVYYCAREREGYNFPGMDVWGQGTTVTVSSASTKGPSVFPLAPCSRSTSESTAALGCLVKDYFPEPVTVSWNSGALTSGVHTFPAVLQSSGLYSLSSVVTVPSSSLGTKTYTCNVDHKPSNTKVDKRVESKYGPPCPPCPAPEFLGGPSVFLFPPKPKDTLYITREPEVTCVVVDVSQEDPEVQFNWYVDGVEVHNAKTKPREEQFNSTYRVVSVLTVLHQDWLNGKEYKCKVSNKGLPSSIEKTISKAKGQPREPQVYTLPPSQEEMTKNQVSLTCLVKGFYPSDIAVEWESNGQPENNYKTTPPVLDSDGSFFLYSRLTVDKSRWQEGNVFSCSVMHEALHNHYTQKSLSLSLGK
light: DIQLTQSPSFLSASVGDRVTITCRASQGISSYLAWYQQKPGRAPKLLIYSASTLQRGVPSRFSGSGSGTDFTLTISSLQPEDYATYYCQQAESFPPSFGPGTKVDIKRTVAAPSVFIFPPSDEQLKSGTASVVCLLNNFYPREAKVQWKVDNALQSGNSQESVTEQDSKDSTYSLSSTLTLSKADYEKHKVYACEVTHQGLSSPVTKSFNRGEC
B1: in assay [1], the IC50, inhibition of GLP-1 (2.5 ng/ml) activity in hGLP-1R-CRE-Luciferase-HEK293 reporter gene assay is 17.2 nM. This molecule displayed an IC50, inhibition of GLP-1 (2.5 ng/mL) activity in monkey GLP-1R-CRE-Luciferase-HEK293 reporter gene assay in assay [2] of 13.8 nM.
